Data set [1] relates to MDA-MB231 tumor xenografts. The data set is described as follows: In vivo fluorescence imaging and biodistribution, MDA-MB231 xenografts. On the procedure:
(§1) In vivo fluorescence imaging and biodistribution. For the development of subcutaneous tumor xenografts, MDA-MB231, OVCAR-3 and HEC-1B 5×10^6 cells in 0.2 ml sterile PBS were injected subcutaneously in the right hind flank of the female nu/nu mice. Tumor imaging was initiated once the tumor volume reached between 200 mm^3 to 300 mm^3. Each tumor-bearing mice was intravenously injected (via tail vein) with the 10 nano moles of fluorescence dye conjugate either in the presence or absence of a 100-fold excess of the unlabeled conjugate. Animals were euthanized two hours post injection using CO2 and the images were acquired using Caliper IVIS Luminal II. After performing the whole body image, the organs of interest were harvested and imaged to inspect the accumulation of the fluorescence in these organs. The image acquisition parameters were as follows: i) lamp level-high, ii) excitation-745 nm, iii) emission-ICG, iv) binning (M) 4M, (v) f-stop-4, (vi) FOV-12.5, (vii) acquisition time, 1 s. All final conjugates were purified by HPLC prior to its use in in-vitro and in vivo studies.
To determine the efficiency of the conjugates to target the receptor positive tumor in vivo female nu/nu athymic nude mice were subcutaneously implanted with either MCF7, MDA-MB231, OVCAR3 or HEC-1B. Once the tumor reached an appropriate volume the mice were injected intravenously with the dye conjugates (10 nmoles) either in the presence or absence of the excess of the unlabeled targeting molecule. Mice were imaged 2 h post injection to investigate the accumulation of the dye conjugates in tumor and other vital organs.
Mice were treated intravenously with the dye conjugate either in the presence or absence of 100-fold excess of the unlabeled conjugates. […] All the images were acquired 2 h post injection. List of organs from top to bottom: Tumor, heart, lungs, pancreas, spleen, muscle, skin, small intestine, large intestine, stomach, liver, and kidney.
Mice were treated intravenously with the dye conjugate either in the presence or absence of 100-fold excess of the unlabeled conjugates. […] All the images were acquired 2 h post injection. List of organs from top to bottom: Tumor, brain, heart, lungs, stomach, small intestine, large intestine, muscle, pancreas, spleen, liver, and kidney.
Time course study. The effectiveness of JL-L3-S0456 to accumulate in the receptor-positive tumors were further inspected by injection the dye conjugate in ovarian cancer and endometrial xenografts. […] To investigate the retention time of the dye conjugate in the tumor a time-course study was performed. Mice were injected with 10 nmoles of the dye conjugates and imaged at 2 h, 8 h, and 12 h.

Data set [2] deals with OVCAR3 tumor xenografts. The following applies: ovarian cancer xenografts, 2 h post injection. Here is the method: as §1
(§2) To determine the efficiency of the conjugates to target the receptor positive tumor in vivo female nu/nu athymic nude mice were subcutaneously implanted with either MCF7, MDA-MB231, OVCAR3 or HEC-1B. […]

Data set [3] deals with HEC-1B tumor xenografts. The settings on record: endometrial xenografts, 2 h post injection. On the procedure: as §1, §2
Where [4] appears, read: 10 nmoles i.v., 2 h post injection.

Regarding `Cc1c(-c2cccc(CCC(=O)NCCCCCCCC(=O)N[C@H](CCC(=O)NC[C@H](O)[C@@H](O)[C@H](O)[C@H](O)CO)C(=O)N[C@H](CCC(=O)O)C(=O)N[C@H](CCC(=O)NC[C@H](O)[C@@H](O)[C@H](O)[C@H](O)CO)C(=O)N[C@H](CSC3CC(=O)N(CCNC(=O)CCc4ccc(OC5=C(/C=C/C6=[N+](CCCCS(=O)(=O)O)c7ccc(S(=O)(=O)[O-])cc7C6(C)C)CCC/C5=C\C=C5\N(CCCCS(=O)(=O)O)c6ccc(S(=O)(=O)O)cc6C5(C)C)cc4)C3=O)C(=O)O)c2)c(=O)n(C[C@@H](N)c2ccccc2)c(=O)n1Cc1c(F)cccc1F` (stereo partly shown) [JL-L3-S0456], the Kidney fluorescence result in data set [1] (setting [4]) was “high fluorescence”. In data set [1] (setting [4]), the Liver fluorescence entry is “none or very minimal fluorescence”. For the same compound, the Tumor uptake result in data set [1] (setting [4]) is “accumulated in the breast cancer tumor”; in data set [2] it was “receptor-mediated uptake”; in data set [3], “receptor-mediated uptake”. Also, the “Competition of tumor uptake by unlabeled JL-L3” value in data set [1] (100-fold excess of unlabeled conjugate, 2 h post injection) is reported as “able to compete the tumor uptake”. For the same compound, the “Tumor fluorescence intensity at 12 h compared with 2 h post injection” value in data set [1] (time course, 10 nmoles, imaged at 2 h, 8 h, 12 h) is on record as “only a very slight decrease in the intensity”.

The values are drawn from patent US11883498B2, “Luteinizing hormone-releasing hormone receptor (LHRH-R) conjugates and uses thereof” (priority 2016, dated 2024).
